Experimental data from patent US20140235701, “NGF APTAMER AND APPLICATION THEREOF” (RIBOMIC INC., published 2014).

T1: NT-4 (neurotrophin-4) (Homo sapiens, UniProt P34130 P34130:81-210)
T1 sequence: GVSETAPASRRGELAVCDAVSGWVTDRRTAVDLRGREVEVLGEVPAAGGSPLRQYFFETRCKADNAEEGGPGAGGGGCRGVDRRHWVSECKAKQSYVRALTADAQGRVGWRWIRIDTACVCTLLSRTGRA


These binders were tested against T2, NGF (nerve growth factor) (Homo sapiens, UniProt P01138 P01138:122-241) (assay: cell_activity; neurite; TF-1 <0.1). Conditions: tags: R&D Systems; chain copies: 2.
T2 sequence (P01138 122-241, one chain of several): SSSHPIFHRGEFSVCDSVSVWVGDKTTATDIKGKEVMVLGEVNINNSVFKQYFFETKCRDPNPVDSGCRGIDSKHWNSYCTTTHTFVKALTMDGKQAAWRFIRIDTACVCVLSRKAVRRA

Binder | IC50
GGGUCCUGUGGAAGAGUUUCCGUCUCGUCCACUGUUACCC (ssRNA, 2'-OMe G1-3,C6,G14,G16,C21,G22,U23,C26,G27,U28,C32,U35,C38-40; other C/U 2'-F, G 2'-OH, dA; 5',3' idT) [SEQ ID NO: 89(2)] | 0.103 nM
GGGUCCUGCUCAAGAGUUUCCGUCUCGUGGGCUGUUACCC (ssRNA, 2'-OMe G1-3,C38-40; other C/U 2'-F, G 2'-OH, dA; 5',3' idT) [SEQ ID NO: 87(1)] | 0.173 nM
GGGUCCUGUUCAAGAGUUUCCGUCUCGUGAACUGUUACCC (ssRNA, 2'-OMe C38-40; other C/U 2'-F, G 2'-OH, dA; 5',3' idT) [SEQ ID NO: 88(1)] | 0.241 nM
GGGUCCUGUUCAAGAGUUUCCGUCUCGUGAACUGUUACCC (ssRNA, as 88(3) plus 2'-OMe U9,U10,C11,G29) [SEQ ID NO: 88(4)] | 0.111 nM

What follows are binders tested against T1, NT-4 (neurotrophin-4) (assay: cell_activity; TF-1). Conditions: tags: R&D Systems; chain copies: 2.
Description: Using TF-1 cells, whether NGF aptamer inhibits BDNF, NT-3, NT-4 was examined. Human receptor genes (TrkB, TrkC, p75) for respective neurotrophic factors were introduced into TF-1 cells (ATCC Number: CRL-2003), which is a human erythroleukemic cell line, by using a retrovirus vector to give cells that highly express these receptors stably. TF-1 cells introduced with TrkB and p75 were used for the evaluation of inhibitory activity against BDNF, TF-1 cells introduced with TrkC and p75 were used for the evaluation against NT-3, and TF-1 cells introduced with TrkB alone were used for the evaluation against NT-4. These cells were suspended in an RPMI-1640 medium containing 20% fetal bovine serum, and seeded in a white 96 well flat-bottom plate at 1000 cells (50 μL) per well. Thereto was added a mixed solution 50 μL of human BDNF (final concentration 0.074 nM) or NT-3 (final concentration 0.074 nM) or NT-4 (final concentration 0.071 nM) and the aptamer (final concentration 1 μM-0.01 nM), which had been pre-reacted at room temperature for 30 min in a serum-free RPMI-1640 medium, 3 days later, 100 μL of CellTiter-Glo reagent for CellTiter-Glo Luminescent Cell Viability Assay (manufactured by Promega) was added to each well, chemiluminescence was measured by a microplate reader. With the amount of luminescence per well obtained by the addition of BDNF or NT-3 or NT-4 alone and culture of the cells for 3 days as inhibitory activity 0%, and that of the well obtained by culture for 3 days without addition of BDNF or NT-3 or NT-4 as inhibitory activity 100%, the inhibitory activity of the aptamer was calculated from the amount of luminescence per well obtained by culturing with the addition of BDNF or NT-3 or NT-4 and the aptamer in mixture. When the inhibitory activity was 0 or below, ‘0%’ is indicated. The 50% inhibitory concentration (IC₅₀) was determined from the concentrations at two, above and below points sandwiching the 50% inhibitory activity. An IC₅₀ value indicated as “>X” means that the inhibitory activity was not more than 50% when the indicated concentration X was the maximum measured concentration. N.D. means not measured.

Binder | IC50
GGGUCCUGCUCAAGAGUUUCCGUCUCGUGGGCUGUUACCC (ssRNA, 2'-OMe G1-3,C38-40; other C/U 2'-F, G 2'-OH, dA; 5',3' idT) [SEQ ID NO: 87(1)] | < 100 nM
GGGUCCUGUUCAAGAGUUUCCGUCUCGUGAACUGUUACCC (ssRNA, 2'-OMe C38-40; other C/U 2'-F, G 2'-OH, dA; 5',3' idT) [SEQ ID NO: 88(1)] | < 100 nM
GGGUCCUGUUCAAGAGUUUCCGUCUCGUGAACUGUUACCC (ssRNA, as 88(3) plus 2'-OMe U9,U10,C11,G29) [SEQ ID NO: 88(4)] | 300 nM

Each binder was assayed against T2, NGF (nerve growth factor) (assay: SPR; more than 40N; high inhibition of receptor binding). Conditions: tags: R&D Systems; chain copies: 2.

Binder | binding result
GGGGUCCUGCUGCGUAGUUUCCGUCUCCGUGGCUGUUACCCC (ssRNA, 2'-F C and U; 2'-OH G; 2'-H (deoxy) A) [SEQ ID NO: 13] | binds
SEQ ID NO: 10 (ssRNA, 2'-F C and U; 2'-OH G; 2'-H (deoxy) A) RNA: GGGAGAACUUCGACCAGAAGUUGGCACAUCCUGCUGCGUAGUUUCCGUCUCCGUGGCUGUUAUGUGCG | binds
GGGCACAUCCUGCUGCGUAGUUUCCGUCUCCGUGGCUGUUAUGUGC (ssRNA, 2'-F C and U; 2'-OH G; 2'-H (deoxy) A) [SEQ ID NO: 11] | binds
SEQ ID NO: 9 (ssRNA, 2'-F C and U; 2'-OH G; 2'-H (deoxy) A) RNA: GGGAGAACUUCGACCAGAAGUUGGCACAUCCUGCUGCGUAGUUUCCGUCUCCGUGGCUGUUAUGUGCGCAUAC | binds
SEQ ID NO: 14 (ssRNA, 2'-F C and U; 2'-OH G; 2'-H (deoxy) A) RNA: GGGAGAACUUCGACCAGAAGUGCAAUACUUUCGCGGCAUAUGUGCAAACCUUGCCACGACUAUGUGCGCAUACAUGGA | binds

Same assay, conditions: tags: R&D Systems; chain copies: 2; stem 1 - internal loop 1 - stem 2 - loop 2 (consensus secondary structure 1)

Binder | binding result
GGGUCCUGCUGCGUAGUUUCCGUCUCCGUGGCUGUUACCC (ssRNA, 2'-F C and U; 2'-OH G; 2'-H (deoxy) A) [SEQ ID NO: 12] | binds

What follows are binders tested against T2, NGF (nerve growth factor) (assay: cell_activity; neurite). Conditions: tags: R&D Systems; chain copies: 2.
Protocol: The cells (2500 cells per well) were cultured for one day in an RPMI-1640 medium containing 2.5% horse serum and 1.25% fetal bovine serum in a 96 well flat-bottom plate coated with collagen type IV. […] Two days later, the cytoplasm and nuclei were stained using Cellomics Neurite Outgrowth Kit (manufactured by Thermo Scientific), and neurite length per cell was measured by Cellomics ArrayScan VTI (manufactured by Thermo Scientific). With the neurite length per cell obtained by the addition of NGF alone as inhibitory activity 0%, and that of the cell obtained by NGF free culture for 2 days as inhibitory activity 100%, the inhibitory activity of the aptamer was calculated from the neurite length per cell obtained by culturing with the addition of NGF and the aptamer in mixture.

Binder | IC50
GGGUCCUGCUGCAGAGUUUCCGUCUCGGUGGCUGUUACCC (ssRNA, 2'-OMe G (G8,G34 2'-OH), dA, 2'-F C/U; 5',3' idT) [SEQ ID NO: 74(1)] | ≤ 1 nM
GGGUCCUGCUGCGUAGUUUCCGUCUGCGUGGCUGUUACCC (ssRNA, 2'-OMe G (G8,G34 2'-OH), dA, 2'-F C/U; 5',3' idT) [SEQ ID NO: 152] | ≤ 1 nM
GGGUCCUGCUGCGUAGUUUCCGUCUGCGUGGCUGUUACCC (ssRNA, 2'-OMe G (G8,G34 2'-OH), dA, 2'-F C/U; 5' PEG40GS2, 3' idT) [SEQ ID NO: 153] | ≤ 1 nM
GGGUCCUGCUGCGUAGUUUCCGUCUGCGUGGCUGUUACCC (ssRNA, 2'-OMe G (G8,G34 2'-OH), dA, 2'-F C/U; 5' idT, 3' PEG40GS2) [SEQ ID NO: 154] | ≤ 1 nM
GGGUCCUGCUGCGUAGUUUCCGUCUGCGUGGCUGUUACCC (ssRNA, 2'-OMe G (G8,G26,G34 2'-OH), dA, 2'-F C/U; 5',3' idT) [SEQ ID NO: 151] | ≤ 1 nM
GGGUCCUGCUGCAUAGUUUCCGUCUGUGUGGCUGUUACCC (ssRNA, 2'-OMe G (G8,G34 2'-OH), dA, 2'-F C/U; 5',3' idT) [SEQ ID NO: 71(1)] | ≤ 1 nM
GGGUCCUGCUGCGCAGUUUCCGUCUACGUGGCUGUUACCC (ssRNA, 2'-OMe G (G8,G34 2'-OH), dA, 2'-F C/U; 5',3' idT) [SEQ ID NO: 155] | ≤ 1 nM
GGGUCCUGAUGCGUAGUUUCCGUCUGCGUGUCUGUUACCC (ssRNA, 2'-OMe G (G8,G34 2'-OH), dA, 2'-F C/U; 5',3' idT) [SEQ ID NO: 68(1)] | ≤ 1 nM
GGGUCCUGCUGCGUAGUUUCCGUCUUCGCGGCUGUUACCC (ssRNA, 2'-OMe G (G8,G34 2'-OH), dA, 2'-F C/U; 5',3' idT) [SEQ ID NO: 38(1)] | ≤ 1 nM
GGGUCCUGCUGCAUAGUUUCCGUCUUUGUGGCUGUUACCC (ssRNA, 2'-OMe G (G8,G34 2'-OH), dA, 2'-F C/U; 5',3' idT) [SEQ ID NO: 66(1)] | ≤ 1 nM
